Legend:
[1] = biological target: cynomolgus BDCA2 (cynomolgus monkey); assay: FACS on 293F-cynoBDCA2 cells; EC50 table under the plot, unit from the x axis (nM); fit of a flat control curve [continued) e.]
[2] = biological target: human BDCA2 (human) (UniProt Q8WTT0); assay: FACS on CHOK1-hBDCA2 cells; EC50 table under the plot, unit from the x axis (nM); fit of a flat control curve
[3] = biological target: human BDCA2 (human) (UniProt Q8WTT0); assay: FACS on CHOK1-hBDCA2 cells; EC50 table under the plot, unit from the x axis (nM); fit of a flat control curve [continued) e.]

cynomolgus BDCA2 (cynomolgus monkey), sequence (chain, as listed by the source): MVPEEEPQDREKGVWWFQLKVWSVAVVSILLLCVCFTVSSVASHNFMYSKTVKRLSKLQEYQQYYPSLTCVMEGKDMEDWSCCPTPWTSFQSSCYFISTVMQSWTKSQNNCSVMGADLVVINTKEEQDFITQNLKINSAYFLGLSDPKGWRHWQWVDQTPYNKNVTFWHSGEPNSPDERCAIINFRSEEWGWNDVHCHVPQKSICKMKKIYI
human BDCA2 (human), sequence (Q8WTT0 whole entry): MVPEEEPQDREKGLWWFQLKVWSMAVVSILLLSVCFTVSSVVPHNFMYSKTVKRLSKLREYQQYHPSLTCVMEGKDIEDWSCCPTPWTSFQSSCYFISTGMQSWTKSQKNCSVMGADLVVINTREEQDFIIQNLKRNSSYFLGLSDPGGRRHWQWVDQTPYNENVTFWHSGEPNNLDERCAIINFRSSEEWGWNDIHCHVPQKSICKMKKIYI

Row | Substance | EC50 [1] [nM] | EC50 [2] [nM] | EC50 [3] [nM]
1 | hIgG1 (antibody) | 21.8 | 61.3 | –
2 | mIgG1 (antibody) | 20.6 | – | 176000
